Target: TBEV envelope protein (E-protein), strain Hypr, in the purified virion (tick-borne encephalitis virus, strain Hypr) (UniProt Q01299)
Assay: cryo-EM structure

TBEV envelope protein (E-protein), strain Hypr, in the purified virion (from UniProt Q01299) (natural protein)
stoichiometry N: 2

From paper PMC5789857
